First the molecules themselves.
B1: alpha/beta hydrolase variant of SEQ ID NO: 16 (N167T, F168Y, S174C, D179E, A182C, A183R, K186R, A187R, F218Y, Q268L, V306I) (enzyme)
chain: MTDQSPETRDIFVPHAFEEQQVDLGEVVMNYVEAGSADHPALLLLPEQTGSWWSYEPVIGLLAESFHVFAVDIRGQGRSTWTPKRYSLDNFGNDLVRFISLVVKRPVIVSGNSSGGVLAAWLSAYAMPGQIRAALCEDTPFFASELVPAHGHSVRQAAGPAFELYRTYLGDQWCVADWEGFCRAARRSPSKIMSLFPSSDEPPQNLKEYDPEWARAFYEGTVALHCPHDLMLSQVKTPILITHHARAVDPHSGDLLGALSDFQAERALAIIESAGVPVEYASFPDALHMMHQFEPERFAEVLTSWIARLPADTPGAHHHHHH
notes: homo-tetramer; also called zearalenone-cleaving polypeptide
B2: alpha/beta hydrolase variant of SEQ ID NO: 21 (E47S, G50E, N167T, F168Y, S174C, D179E, A182C, A183R, K186R, A187R, F218Y) (enzyme)
chain: B1 chain with E47S, G50E, L268Q, I306V
notes: as for B1
B3: alpha/beta hydrolase variant of SEQ ID NO: 22 (P57E, V58A, I59M, N167T, F168Y, S174C, D179E, A182C, A183R, K186R, A187R, F218Y) (enzyme)
chain: B1 chain with P57E, V58A, I59M, L268Q, I306V
notes: as for B1
B4: alpha/beta hydrolase variant of SEQ ID NO: 18 (F17Y, I59M, N167T, F168Y, S174C, D179E, A182C, A183R, K186R, A187R, F218Y) (enzyme)
chain: B1 chain with F17Y, I59M, L268Q, I306V
notes: as for B1
B5: alpha/beta hydrolase variant of SEQ ID NO: 23 (A63S, S65H, N167T, F168Y, S174C, D179E, A182C, A183R, K186R, A187R, F218Y) (enzyme)
chain: B1 chain with A63S, S65H, L268Q, I306V
notes: as for B1
B6: alpha/beta hydrolase variant of SEQ ID NO: 32 (N167T, F168Y, S174C, D179E, A182C, A183R, K186R, A187R, F218Y, L287T, M289S) (enzyme)
chain: B1 chain with L268Q, L287T, M289S, I306V
notes: as for B1
B7: alpha/beta hydrolase variant of SEQ ID NO: 10 (R155K, N167T, S174C, V175A) (enzyme)
chain: MTDQSPETRDIFVPHAFEEQQVDLGEVVMNYVEAGSADHPALLLLPEQTGSWWSYEPVIGLLAESFHVFAVDIRGQGRSTWTPKRYSLDNFGNDLVRFISLVVKRPVIVSGNSSGGVLAAWLSAYAMPGQIRAALCEDTPFFASELVPAHGHSVKQAAGPAFELYRTFLGDQWCAADWDGFAAAAKASPSKIMSLFPSSDEPPQNLKEYDPEWARAFFEGTVALHCPHDLMLSQVKTPILITHHARAVDPHSGDLLGALSDFQAERAQAIIESAGVPVEYASFPDALHMMHQFEPERFAEVLTSWVARLPADTPGAHHHHHH
notes: as for B1
B8: alpha/beta hydrolase variant of SEQ ID NO: 14 (N167T, F168Y, S174C) (enzyme)
chain: B7 chain with K155R, F168Y, A175V
notes: as for B1
B9: alpha/beta hydrolase variant of SEQ ID NO: 26 (T139P N167T, F168Y, S174C, D179E, A182C, A183R, K186R, A187R, F218Y) (enzyme)
chain: B1 chain with T139P, L268Q, I306V
notes: as for B1
B10: alpha/beta hydrolase variant of SEQ ID NO: 27 (N167T, F168Y, S174C, D179E, A182C, A183R, K186R, A187R, F218Y, H225S) (enzyme)
chain: B1 chain with H225S, L268Q, I306V
notes: as for B1
B11: alpha/beta hydrolase variant of SEQ ID NO: 31 (N167T, F168Y, S174C, D179E, A182C, A183R, K186R, A187R, F218Y, A281E) (enzyme)
chain: B1 chain with L268Q, A281E, I306V
notes: as for B1
B12: alpha/beta hydrolase variant of SEQ ID NO: 17 (D10N, N167T, F168Y, S174C, D179E, A182C, A183R, K186R, A187R, F218Y) (enzyme)
chain: B1 chain with D10N, L268Q, I306V
notes: as for B1
B13: alpha/beta hydrolase variant of SEQ ID NO: 7 (N167L) (enzyme)
chain: B7 chain with K155R, T167L, C174S, A175V
notes: as for B1
B14: alpha/beta hydrolase variant of SEQ ID NO: 29 (N167T, F168Y, S174C, D179E, A182C, A183R, K186R, A187R, F218Y, A245V) (enzyme)
chain: B1 chain with A245V, L268Q, I306V
notes: as for B1
B15: alpha/beta hydrolase variant of SEQ ID NO: 34 (N167T, F168Y, S174C, D179E, A182C, A183R, K186R, A187R, F218Y, S304R) (enzyme)
chain: B1 chain with L268Q, S304R, I306V
notes: as for B1
B16: alpha/beta hydrolase variant of SEQ ID NO: 20 (H39R, N167T, F168Y, S174C, D179E, A182C, A183R, K186R, A187R, F218Y) (enzyme)
chain: B1 chain with H39R, L268Q, I306V
notes: as for B1
B17: alpha/beta hydrolase variant of SEQ ID NO: 4 (N167S) (enzyme)
chain: B7 chain with K155R, T167S, C174S, A175V
notes: as for B1
B18: alpha/beta hydrolase variant of SEQ ID NO: 19 (V28T, N167T, F168Y, S174C, D179E, A182C, A183R, K186R, A187R, F218Y) (enzyme)
chain: B1 chain with V28T, L268Q, I306V
notes: as for B1
B19: alpha/beta hydrolase variant of SEQ ID NO: 12 (N167S, S174C) (enzyme)
chain: B7 chain with K155R, T167S, A175V
notes: as for B1
B20: alpha/beta hydrolase variant of SEQ ID NO: 2 (N167T, F168Y, S174C, F218Y) (enzyme)
chain: B7 chain with K155R, F168Y, A175V, F218Y
notes: as for B1
B21: alpha/beta hydrolase variant of SEQ ID NO: 33 (N167T, F168Y, S174C, D179E, A182C, A183R, K186R, A187R, F218Y, S293S) (enzyme)
chain: B1 chain with L268Q, F293S, I306V
notes: as for B1
B22: alpha/beta hydrolase variant of SEQ ID NO: 15 (N167T, F168Y, S174C, D179E, A182C, A183R, K186R, A187R, F218Y) (enzyme)
chain: B1 chain with L268Q, I306V
notes: as for B1
B23: alpha/beta hydrolase variant of SEQ ID NO: 8 (N167T, S174T) (enzyme)
chain: B7 chain with K155R, C174T, A175V
notes: as for B1
B24: alpha/beta hydrolase variant of SEQ ID NO: 30 (N167T, F168Y, S174C, D179E, A182C, A183R, K186R, A187R, F218Y, H251E) (enzyme)
chain: B1 chain with H251E, L268Q, I306V
notes: as for B1
B25: alpha/beta hydrolase variant of SEQ ID NO: 11 (R155K, N167T, S174C, V175T) (enzyme)
chain: B7 chain with A175T
notes: as for B1
B26: alpha/beta hydrolase variant of SEQ ID NO: 5 (N167A) (enzyme)
chain: B7 chain with K155R, T167A, C174S, A175V
notes: as for B1
B27: alpha/beta hydrolase variant of SEQ ID NO: 28 (N167T, F168Y, S174C, D179E, A182C, A183R, K186R, A187R, F218Y L230R) (enzyme)
chain: B1 chain with L230R, L268Q, I306V
notes: as for B1
B28: alpha/beta hydrolase variant of SEQ ID NO: 6 (N167C) (enzyme)
chain: B7 chain with K155R, T167C, C174S, A175V
notes: as for B1
B29: alpha/beta hydrolase variant of SEQ ID NO: 3 (N167T) (enzyme)
chain: B7 chain with K155R, C174S, A175V
notes: as for B1
B30: alpha/beta hydrolase variant of SEQ ID NO: 25 (A126S, N167T, F168Y, S174C, D179E, A182C, A183R, K186R, A187R, F218Y) (enzyme)
chain: B1 chain with A126S, L268Q, I306V
notes: as for B1
B31: alpha/beta hydrolase variant of SEQ ID NO: 24 (F69Y, N167T, F168Y, S174C, D179E, A182C, A183R, K186R, A187R, F218Y) (enzyme)
chain: B1 chain with F69Y, L268Q, I306V
notes: as for B1
B32: alpha/beta hydrolase variant of SEQ ID NO: 9 (N167T, S174C) (enzyme)
chain: B7 chain with K155R, A175V
notes: as for B1
B33: alpha/beta hydrolase variant of SEQ ID NO: 13 (N167T, S174C, F218Y) (enzyme)
chain: B7 chain with K155R, A175V, F218Y
notes: as for B1

Changes are numbered by the printed parent chain. Names may count otherwise.

This data set deals with the molecule itself. As to the kind of experiment: Blue-Native-PAGE, oligomeric conformation (self-association of identical chains). The text has this:
Comparison of the native molecular weight (oligomeric conformation) between single purified zearalenone-cleaving polypeptides was done via Blue-Native-PAGE. Dilutions of the elutes were supplied with not denaturating loading dye (e.g. 2× loading dye: 0.126 M tris(hydroxymethyl)aminomethan/hydrochloric acid pH 6.8, 20.0% glycerol, 4.0% Coomassie Blue G-250) and separated on a 4-15% polyacrylamid gel under native conditions (e.g. Mini-PROTEAN® Tetra Cell System, 1658004EDU+4-15% Mini-PROTEAN® TGX™ Precast Protein Gels, 4561083EDU, Bio-Rad Laboratories GmbH) (5× Anode Buffer: 0.125 M Tris(hydroxymethyl)aminomethane, 0.960 M Glycine, 1× Kathode Buffer: Anode Buffer+0.02% Coomassie Blue G250; 200 V, 40 minutes). The peptide bands were visualized by Coomassie staining. The oligomeric state of selected zearalenone-cleaving polypeptides was determined by size exclusion chromatography, SEC-MALS or X-Ray crystallography. Homo-dimers (e.g. SEQ ID NO. 1) migrated faster across the BN-PAGE gel matrix, while homo-tetramers (e.g. SEQ ID NO. 2-35) were retained in the gel matrix to a higher extent. The oligomeric conformation of the zearalenone-cleaving polypeptides was determined relatively to the migration of homo-dimeric and homo-tetrameric peptides.
As for B1, the binding result was “binds”.
For B2, the binding result was “binds”.
Then B3, with “binds”.
For B4, the binding result is reported as “binds”.
The value for B5 was “binds”; that for B6 was “binds”.
The value for B7 was “binds”; that for B8 was “binds”.
Then B9, with “binds”.
In the case of B10, the binding result is recorded as “binds”.
For the protein B11, the binding result is recorded as “binds”.
Turning to B12, the binding result is “binds”.
The value for B13 was “binds”; that for B14 was “binds”.
The value for B15 was “binds”.
Then B16, with “binds”; and B17, with “binds”.
With B18, the binding result was “binds”.
Then B19, with “binds”.
Take B20: the binding result is reported as “binds”.
On to B21, for which the binding result is recorded as “binds”.
Then B22, with “binds”.
Consider B23, for which the binding result was “binds”.
The value for B24 was “binds”; that for B25 was “binds”.
The value for B26 was “binds”.
B27: the binding result was “binds”.
The value for B28 was “binds”; that for B29 was “binds”.
Then B30, with “binds”; and B31, with “binds”; and B32, with “binds”.
The value for B33 was “binds”.
